Test results as given in paper PMC5974088 (2018).
Where no end group is shown, it is not given here. Me2 = dimethyl-lysine

Assays:
Experiment in all cases: ITC
[1] = molecular target: 53BP1 Tudor W1495A (H. sapiens, UniProt Q12888 1484-1603, W1495A)
[2] = molecular target: 53BP1 Tudor Y1500A (H. sapiens, UniProt Q12888 1484-1603, Y1500A)
[3] = molecular target: T1, 53BP1 tandem Tudor domain (1484-1603) (H. sapiens, UniProt Q12888 1484-1603)
T1 chain: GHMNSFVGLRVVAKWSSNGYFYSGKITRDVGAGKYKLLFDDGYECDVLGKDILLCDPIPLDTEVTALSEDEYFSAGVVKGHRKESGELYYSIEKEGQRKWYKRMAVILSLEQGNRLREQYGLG

[4] = molecular target: 53BP1 Tudor Y1523S (H. sapiens, UniProt Q12888 1484-1603, Y1523S)
[5] = molecular target: 53BP1 Tudor Y1502A (H. sapiens, UniProt Q12888 1484-1603, Y1502A)
[6] = molecular target: 53BP1 Tudor Y1523A (H. sapiens, UniProt Q12888 1484-1603, Y1523A)
[7] = molecular target: 53BP1 Tudor D1521A (H. sapiens, UniProt Q12888 1484-1603, D1521A)
53BP1 Tudor D1521A, sequence (Q12888 other isoform, or with tags, fused parts or gaps D1521A | D1521A): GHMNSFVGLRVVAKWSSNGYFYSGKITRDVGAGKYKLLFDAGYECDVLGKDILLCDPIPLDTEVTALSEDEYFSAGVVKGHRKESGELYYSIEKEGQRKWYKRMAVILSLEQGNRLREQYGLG

53BP1 Tudor Y1500A, sequence (Q12888 other isoform, or with tags, fused parts or gaps Y1500A | Y1500A): as the sequence (Q12888 other isoform, or with tags, fused parts or gaps D1521A | D1521A) above, with Y20A, A41D counted along it
53BP1 Tudor Y1502A, sequence (Q12888 other isoform, or with tags, fused parts or gaps Y1502A | Y1502A): as the sequence (Q12888 other isoform, or with tags, fused parts or gaps D1521A | D1521A) above, with Y22A, A41D counted along it
53BP1 Tudor W1495A, sequence (Q12888 other isoform, or with tags, fused parts or gaps W1495A | W1495A): as the sequence (Q12888 other isoform, or with tags, fused parts or gaps D1521A | D1521A) above, with W15A, A41D counted along it

Q: With KRHRK(Me2)VLRDN [H4K20me2] as the binder, how does the Kd [1] read?
A: > 1500 µM

Q: And the Kd [2]?
A: 163 µM

Q: And the Kd [3]?
A: 19.7 µM

Q: What about the Kd [4] of the same binder?
A: 65.8 µM

Q: And the Kd [5]?
A: 151 µM

Q: And the Kd [6]?
A: 7.8 µM

Q: What about the Kd [7] of the same binder?
A: > 1500 µM
